From PMC4227051, “B4GAT1 is the priming enzyme for the LARGE-dependent functional glycosylation of α-dystroglycan” (eLife, 2014) come the findings set out here.

One data set concerns the target T1, B3GNT2 (Homo sapiens, UniProt Q9NY97).
T1 construct: catalytic domain residues 35-397, secreted; N-terminal 8xHis-AviTag-sfGFP-TEV fusion kept; HEK293F host, Ni-NTA
T1 sequence (Q9NY97 35-397): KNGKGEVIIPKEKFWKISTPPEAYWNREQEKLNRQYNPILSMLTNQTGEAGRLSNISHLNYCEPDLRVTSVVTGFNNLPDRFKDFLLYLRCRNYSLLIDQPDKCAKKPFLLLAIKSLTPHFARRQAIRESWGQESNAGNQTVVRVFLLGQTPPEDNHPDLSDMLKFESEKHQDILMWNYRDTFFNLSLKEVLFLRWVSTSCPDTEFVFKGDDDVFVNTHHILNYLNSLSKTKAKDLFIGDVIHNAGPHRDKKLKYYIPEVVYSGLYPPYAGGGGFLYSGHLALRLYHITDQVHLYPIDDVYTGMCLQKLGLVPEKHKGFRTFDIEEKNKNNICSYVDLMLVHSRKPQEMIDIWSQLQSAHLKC
Description: radioactive GlcNAc transfer, scintillation counting. The data set is classed as biochemical. The settings on record: 0.1 M MES pH 6.5, 10 mM MnCl2, 37 °C, overnight.

Substrate in data set [1]: O=[N+]([O-])c1ccc(O[C@H]2OC[C@@H](O)[C@H](O)[C@H]2O)cc1
Kind of data set: purified protein. The data set is classed as biochemical, Homo sapiens. Particulars: 2 mM UDP-GlcA, 0.1 M MES pH 6.5, 10 mM MnCl2, 5 mM MgCl2, 37 °C, acceptor tested 200 nM to 2 mM.

Substrate in data set [2]: O=[N+]([O-])c1ccc(O[C@@H]2OC[C@@H](O)[C@H](O)[C@H]2O)cc1
Kind of data set: purified protein. The data set is classed as biochemical, Homo sapiens. Particulars: 2 mM UDP-GlcA, 0.1 M MES pH 6.5, 10 mM MnCl2, 5 mM MgCl2, 37 °C, 2 h, acceptor tested 200 nM to 2 mM.

Setting [3] is: 16 h, glucuronyltransferase activity.

Regarding `CC(=O)N[C@H]1[C@H](Oc2ccc([N+](=O)[O-])cc2)O[C@H](CO)[C@@H](O[C@@H]2O[C@H](CO)[C@H](O)[C@H](O)[C@H]2O)[C@@H]1O` [Gal-β4-GlcNAc-β-pNP], the “radioactive GlcNAc transfer, scintillation counting” value at B3GNT2 (2 mM UDP-GlcNAc with UDP-[3H]GlcNAc) is given as “showed clear N-acetylglucosaminyltransferase activity toward the acceptor only with B3GNT2”.

As to `CC(=O)N[C@H]1[C@@H](OP(=O)(O)OP(=O)(O)OC[C@H]2O[C@@H](n3ccc(=O)[nH]c3=O)[C@H](O)[C@@H]2O)O[C@H](CO)[C@@H](O)[C@@H]1O` [UDP-GlcNAc], the “radioactive GlcNAc transfer, scintillation counting” value on B3GNT2 (donor, labelled compound, acceptor Gal-β4-GlcNAc-β-pNP) is recorded as “radioactive incorporation of GlcNAc into the N-acetyllactosamine acceptor”.

B1: LARGE (Homo sapiens) (protein)
chain: PSHRRGNHSKTYSMEEGTGDSENLRAGIVAGNSSECGQQPVVEKCETIHVAIVCAGYNASRDVVTLVKSVLFHRRNPLHFHLIADSIAEQILATLFQTWMVPAVRVDFYNADELKSEVSWIPNKHYSGIYGLMKLVLTKTLPANLERVIVLDTDITFATDIAELWAVFHKFKGQQVLGLVENQSDWYLGNLWKNHRPWPALGRGYNTGVILLLLDKLRKMKWEQMWRLTAERELMGMLSTSLADQDIFNAVIKQNPFLVYQLPCFWNVQLSDHTRSEQCYRDVSDLKVIHWNSPKKLRVKNKHVEFFRNLYLTFLEYDGNLLRRELFGCPSEADVNSENLQKQLSELDEDDLCYEFRRERFTVHRTHLYFLHYEYEPAADSTDVTLVAQLSMDRLQMLEAICKHWEGPISLALYLSDAEAQQFLRYAQGSEVLMSRHNVGYHIVYKEGQFYPVNLLRNVAMKHISTPYMFLSDIDFLPMYGLYEYLRKSVIQLDLANTKKAMIVPAFETLRYRLSFPKSKAELLSMLDMGTLFTFRYHVWTKGHAPTNFAKWRTATTPYRVEWEADFEPYVVVRRDCPEYDRRFVGFGWNKVAHIMELDVQEYEFIVLPNAYMIHMPHAPSFDITKFRSNKQYRICLKTLKEEFQQDMSRRYGFAALKYLTAENNS
notes: catalytic domains residues 91-756, secreted; N-terminal 8xHis-AviTag-sfGFP-TEV fusion kept; HEK293F host, Ni-NTA
As usually defined, the Km is the substrate concentration at which the rate is half of its maximum. In general, kcat refers to the number of substrate molecules converted per active site and unit of time at saturation. Usually kcat/Km stands for the turnover number divided by the Michaelis constant. Take B1: in the data set “purified protein [1]” (setting [3]), the Km was 6.0 mM, the kcat turned out to be 0.005 s⁻¹ and the kcat/Km worked out at 0.84 M⁻¹ s⁻¹.

B2: B3GNT1 (B4GAT1) (Homo sapiens) (protein)
chain: RSVDQVKAQLRTALASGGVLDASGDYRVYRGLLKTTMDPNDVILATHASVDNLLHLSGLLERWEGPLSVSVFAATKEEAQLATVLAYALSSHCPDMRARVAMHLVCPSRYEAAVPDPREPGEFALLRSCQEVFDKLARVAQPGINYALGTNVSYPNNLLRNLAREGANYALVIDVDMVPSEGLWRGLREMLDQSNQWGGTALVVPAFEIRRARRMPMNKNELVQLYQVGEVRPFYYGLCTPCQAPTNYSRWVNLPEESLLRPAYVVPWQDPWEPFYVAGGKVPTFDERFRQYGFNRISQACELHVAGFDFEVLNEGFLVHKGFKEALKFHPQKEAENQHNKILYRQFKQELKAKYPNSPRRC
notes: catalytic domain residues 54-415, secreted, transmembrane domain removed; N-terminal 8xHis-AviTag-sfGFP-TEV fusion cut by TEV; HEK293F host, Ni-NTA
B2: in “purified protein [2]”, the Km is 4.0 mM, the kcat came to 0.25 s⁻¹ and the kcat/Km was 63 M⁻¹ s⁻¹. Besides, in the data set “purified protein [1]” (2 h), the Km was 3.0 mM, the kcat turned out to be 0.087 s⁻¹ and the kcat/Km is 29 M⁻¹ s⁻¹.
